Assay results published in patent US20220306762A1 (CRYSTAL BIOSCIENCE, published 2022).

T1: His-tagged mouse CD38 (ACRO Biosystems #CD8-M5223) (mouse, UniProt P56528 45-304)
T1 construct: bought recombinant protein with His tag; also called Murine
T1 sequence (looked up): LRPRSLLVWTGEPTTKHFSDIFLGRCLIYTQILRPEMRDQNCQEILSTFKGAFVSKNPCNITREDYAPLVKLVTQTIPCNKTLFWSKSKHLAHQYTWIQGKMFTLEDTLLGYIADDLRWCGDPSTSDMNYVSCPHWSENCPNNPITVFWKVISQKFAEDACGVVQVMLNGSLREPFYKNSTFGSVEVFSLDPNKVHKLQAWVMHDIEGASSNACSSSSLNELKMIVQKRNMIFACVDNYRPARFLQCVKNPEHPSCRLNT

T2: murine CD38 on transiently transfected Expi293 cells (Origene MC208001) (murine, UniProt P56528 1-304)
T2 construct: whole, on cells; also called Murine (FACs)
T2 sequence (looked up): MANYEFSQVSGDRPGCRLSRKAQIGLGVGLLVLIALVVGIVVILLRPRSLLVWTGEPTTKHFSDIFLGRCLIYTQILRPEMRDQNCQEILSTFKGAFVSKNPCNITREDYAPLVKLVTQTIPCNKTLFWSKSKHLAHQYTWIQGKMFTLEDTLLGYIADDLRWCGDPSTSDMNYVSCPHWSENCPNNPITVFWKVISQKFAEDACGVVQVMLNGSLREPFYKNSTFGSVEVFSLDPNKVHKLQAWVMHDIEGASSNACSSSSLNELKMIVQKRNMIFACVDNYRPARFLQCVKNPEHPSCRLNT


What was measured:
[1] = target: T3, His-tagged human CD38 (ACRO Biosystems cat #CD8-H5224) (human, UniProt P28907 43-300); assay: ELISA, coated His-CD38
T3 construct: bought recombinant protein with His tag

[2] = target: T4, His-tagged cynomolgus monkey CD38 (ACRO Biosystems cat #CD8-05223) (cynomolgus monkey, UniProt Q5VAN0 43-301); assay: ELISA, coated His-CD38
T4 construct: bought recombinant protein with His tag

[3] = target: T1, His-tagged mouse CD38 (ACRO Biosystems …); assay: ELISA, coated His-CD38
[4] = target: T3, His-tagged human CD38 (ACRO Biosystems …); assay: SPR, captured scFv-Fc, His-CD38 analyte;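 note: SPR on a Carterra LSA, scFv-Fc captured by anti-human Fc on HC30M chip, His-tagged CD38 (human, mouse, cynomolgus) flowed as analyte in eight 1:2 steps from 400 nM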
[5] = target: T4, His-tagged cynomolgus monkey CD38 (ACRO …); assay: SPR, captured scFv-Fc, His-CD38 analyte;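 note: SPR on a Carterra LSA, scFv-Fc captured by anti-human Fc on HC30M chip, His-tagged CD38 (human, mouse, cynomolgus) flowed as analyte in eight 1:2 steps from 400 nM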
[6] = target: T5, human CD38 on transiently transfected Expi293 cells (Origene #SC321273) (human, UniProt P28907 1-300); assay: flow cytometry, transfected Expi293 cells;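 note: antibody binding to Expi293 cells transiently expressing human or murine CD38, antibodies applied at 10 ug/ml for 60 min on ice, read by flow cytometry as percent gated cells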
T5 construct: whole, on cells; also called Human (FACs)

[7] = target: T2, murine CD38 on transiently transfected …; assay: flow cytometry, transfected Expi293 cells;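 note: antibody binding to Expi293 cells transiently expressing human or murine CD38, antibodies applied at 10 ug/ml for 60 min on ice, read by flow cytometry as percent gated cells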

Binder | ELISA 1 ug/ml [1] | ELISA 1 ug/ml [2] | ELISA 1 ug/ml [3] | Kd [4] | Kd [5] | FACs 10 ug/ml (percent gated) [6] | FACs 10 ug/ml (percent gated) [7]
40596p1.E4 (scFv, V domains shown, tested as scFv-Fc supernatant) VH: EVQLLESGGGLVQPGGSLRLSCAASGFDFSGSAMSWVRQAPGKGLEYVAGLGWSGSFIYYADSVKGRSTISRDNSKNTLYLQLNSLRAEDTAVYYCARNPGFGEMDVWGQGTTVTVSS VL: EIVLTQSPGSLSLSPGERATLSCRASQTVGSNLAWYQQKPGQAPRLLIYGASTRATDIPDRFSGSGSGTEFTLTISSLQSEDFAVYYCQQYNSWPPLTFGGGTKVEIK | 1.93 | 1.77 | 1.72 | 56.9 nM | 17.8 nM | 64.2% | 34%
40769p1.1.H3 (scFv, V domains shown) VH: EVQLLESGGGLVQPGGSLRLSCAASGFAFNDYLMSWVRQAPGKGLEWVSTISWSGGSTYYADSVKGRFTISRDNSKNTLYLQMNSLRAEDTALYYCARDRYRYNYYYFMDVWGQGTTVTV VL: QSVLTQPPSASGTPGQRVTISCSGSTSDSPYDRIDWYQQLPGTAPKLLIYKDDQRPSGVPDRFSGSKSGTSASLAISGLQSEDEADYYCATWDAMLSAWVFGGGTKLTVL | – | – | 0.049 | – | – | 82.5% | 3.84%
40769p1.1.B10 (scFv, V domains shown, tested as scFv-Fc supernatant) VH: EVQLLESGGGLVQPGGSLRLSCTASGITFSRFNMFWVRQAPGKGLEFVASIRDDGSWTYYADSVKGRFTISRDNSKNTLYLQMNSLRAEDTAVYYCAKDYNSKDFIYHYVMDVWGQGTTVTVSS VL: QSVLTQPPSASGTPGQRVTISCSGRNSNIGNNVVNWYQQLPGTAPKLLIYRNQERPSGVPDRFSGSKSGTSASLAISGLQSEDEADYYCSTWDDSLNGWVFGGGTKLTVL | 1.5 | 2.05 | 0.049 | 8.02 nM | 96400 nM | 76.4% | 0.38%
40769p1.1.B8 (scFv, V domains shown, tested as scFv-Fc supernatant) VH: EVQLLESGGGLVQPGGSLRLSCAASGFTFEDYAMSWVRQAPGKGLEWVSVISSKGGSTSNADSVKGRFTISRDNSKNTLYLQMNSLRAEDTAVYYCAKGMERQYYSYNAMDVWGQGTTVTVSS VL: QSVLTQPPSASGTPGQRVTISCSGSNSNIDVDYVYWYQQLPGTAPRLLIYKDDQRPSGVPDRFSGSKSGTSASLAISGLQSEDEADYYCATWDDNLNSWLFGGGTKLTVL | 1.64 | 1.75 | 0.048 | 0.101 nM | 1.62 nM | 81.4% | 0.04%
40769p1.1.E2 (scFv, V domains shown, tested as scFv-Fc supernatant) VH: EVLLLESGGGLVQPGGSLRLSCAASGFTFSDYWMSWVRQAPGKGLEWVSTISISAGIIYYADSVKGRFTISRDNSKNTLYLQMNSLRAEDTAVYYCAKDNWNDYYGMDVWGQGTTVTVSS VL: QSVLTQPPSASGTPGQRVTMSCSGNNQNIRDNYVYWYQQVPGTAPKLLIYKDDQRPSGVPDRFSGSKSGTSASLAISGLQSEDEADYYCATWDGSLKARVFGGGTKLTVL | 1.65 | 1.98 | – | 3.23 nM | 4.4 nM | 82% | –
40769p1.1.G10 (scFv, V domains shown, tested as scFv-Fc supernatant) VH: EVQLLESGGGLVQPGGSLRLSCAASGFTFSDYWMNWVRQAPGKGLEWVSTISSGGSMIYHADSVKGRFTISRDNSKNTLYLQMNSLRPEDTAVYYCAKDNWNDYYGMDVWGQGTTVTVSS VL: QSVLTQPPSASGTPGQRVNISCSGSSSNIRYNYVYWYQQVPGTAPKLLIYKDDQRPSGVPDRFSGSESGTSASLAISGLQSEDEADYYCATWDGSLNARVFGGGTKLTVL | 1.75 | 2.11 | – | 78.9 nM | 154 nM | 77.5% | –
40769p1.1.H1 (scFv, V domains shown, tested as scFv-Fc supernatant) VH: EVQLLESGGGLVQPGGSLRLSCAASGFTFSDYWMNWVRQAPGKGLEWVSTISSGGSMIYHADSVKGRFTISRDNSKNTLYLQMNSLRPEDTAVYYCAKDNWNDYYGMDVWGQGTTVTVSS VL: QSVLTQPPSASGTPGQRVNISCSGSSSNIRYNYVYWYQQVPGTAPKLLIYKDDQRPSGVPDRFSGSKSGTSASLAISELQSEDEADYYCATWDGSLNARVFGGGTKLTVL | 1.86 | 2.05 | 0.049 | 85.7 nM | 59.5 nM | 76.2% | 3.13%
40769p1.1.B12 (scFv, V domains shown, tested as scFv-Fc supernatant) VH: EVQLLESGGGLIQPGGSLRLSCTASGFDFSSYGMHWVRQAPGKGLEWVGIISDSGGTTYYADSVKGRFTISRDNSKNTMYLQMNSLRAEDTALYYCASYIMDVWGQGITVTVSS VL: QSVLTQPPSASGTPGQRVTISCSGSSSNVGGNSVYWYQQLPGTAPKLLFYGNHRRPSGVPDRFSGSKSGTSASLAISGLQSEDEADYYCAVWDDSLNAWVFGGGTKLTVL | 1.56 | 1.91 | 0.472 | 32.4 nM | 135 nM | 71.1% | 31.9%
40769p1.1.G5 (scFv, V domains shown, tested as scFv-Fc supernatant) VH: EVQLLESGGGFVQPGGSLRLSCAASGFNFNNAWMNWVRQAPGKGLEWVGIINGDGTNTYYADSVKGRFTISRDNSKNTLYLQMSSLRAEDTAIYYCARDNKLNDYYYAMDVWGQGTTVTV VL: QSVLTQPSSASGTPGQRVTISCSGGSSNIHANYVYWYQQLPGTAPKLLIYRNSQRPSGVPDRFSGSKSGTSASLAISGLQSEDEADYYCGTWDNILNVWVFGGGTKLTVL | 1.72 | 2.01 | – | 3.11 nM | 11.5 nM | 84.4% | –
40769p1.1.A2 (scFv, V domains shown, tested as scFv-Fc supernatant) VH: EVQLLESGGGLVQPGGSLRLSCAASGFLFDDYGMSWVRQAPGKGLEWVSAISYKGGSTYYADSVKGRFTISRDNSKNTLYLQMSSLRAEDTAVYYCAKDHKWNYYGMDVWGQGTTVTVSS VL: QSVLTQPPSASGTPGQRVTISCSGSTSNIGNDNYVSWYQQLPGTAPRLLIYKDDQRPSGVPDRFSGSKSGTSASLAISGLQSEDEADYYCGTWDDRLNAWVFGGGTKLTVL | 1.61 | 1.73 | 0.049 | 0.319 nM | 0.35 nM | 78.5% | 2.65%
40769p1.2.E3 (scFv, V domains shown, tested as scFv-Fc supernatant) VH: EVQLLESGGDLVQPGGSLRLSCGASGFTFSDHYMSWVRQAPGKGLEWVADISARGSNTWYADSVKGRFTISRDNSENTLYLQMNSLRAEDTAVYYCAKNWNYNYGMDVWGQGTTVTVSS VL: QSVLTQAPSASGTPGQRVTISCSGSSIQNNYVSWYQQLPGTAPKLLIYRNFERPSGVPDRFSASKSGTSASLAISGLQSEDEADYYCASWDDSLNWVFGGGTKLTVL | 1.59 | 1.7 | – | 2.24 nM | 2.11 nM | 80.5% | –
40769p1.2.B4 (scFv, V domains shown, tested as scFv-Fc supernatant) VH: EVQLLESGGDLVQPGGSLRLSCGASGFTFSDHYMSWVRQAPGKGLEWVADISARGSNTWYADSVKGRFTISRDNSENTLYLQMNSLRAEDTAVYYCAKNWNYNYGMDVWGHGTTVTVSS VL: QSVLTQAPSASGTPGQRVTISCSGSSIQNNYVSWYQQLPGTAPKLLIYRNFERPSGVPDRFSASKSGTSASLAISGLQSEDEADYYCASWDDSLNWVFGGGTKLTVL | 1.55 | 1.73 | – | 2.38 nM | 2.34 nM | 81% | –
40769p1.2.F9 (scFv, V domains shown, tested as scFv-Fc supernatant) VH: EVQLLESGGDLVQPGGSLRLSCGASGFTFSDHYMSWVRQAPGKGLEWVADISARGSNTWYADSVKGRFTISRDNSENTLYLQMNSLRAEDTAVYYCAKNWNYNYGMDVWGQGTTVTVSS VL: QSVLTQAPSASGTPGQRVTISCSGSSIQNNYVSWYQQLPGTAPKLLIYRNFERPSGVPDRFSASKSGTSASLAISGLQSGDEADYYCASWDDSLNWVFGGGTKLTVL | 1.47 | 1.56 | – | 17.1 nM | – | 79.4% | –
